# Assay results published in patent publication US20200325187A1 (Genentech, published 2020).
# Read-outs that look alike come from different tables or passages of the source.
# T1: hVEGF-A (8-109) (human, UniProt P15692 214-315)
# T1 sequence (looked up): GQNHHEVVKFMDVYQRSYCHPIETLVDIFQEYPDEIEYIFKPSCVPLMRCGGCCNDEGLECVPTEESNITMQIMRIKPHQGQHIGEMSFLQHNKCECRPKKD
# What was measured:
# hVEGF-A [1] = molecular target: T2, hVEGF-A (human, UniProt P15692-4 27-191, limits assumed); assay: phage competition ELISA, soluble CKP
# T2 construct: also called human VEGF-A; WT
# hVEGF-A (8-109) [2] = molecular target: T1, hVEGF-A (8-109); assay: spot phage ELISA
# Protocol: (§1) After four rounds of binding selection, individual phage clones were picked and inoculated into 450 μl 2YT media containing 50 µg/ml Carbenecillin and M13-KO7 helper phage in 96-well blocks, which were grown at 37° C. overnight. […] The plates were washed and bound phage was detected with anti-M13-HRP followed by TMB substrate. In these assays, phage binding to BSA alone was tested in parallel to assess background binding. […] Positive clones were subjected to DNA sequence analysis.
# hVEGF-A [3] = molecular target: T2, hVEGF-A; assay: phage competition ELISA, soluble CKP; remark: listed apart in the source
# hVEGF-A (8-109) [4] = molecular target: T1, hVEGF-A (8-109); assay: spot phage ELISA; remark: listed apart in the source
# Protocol: as §1
# hVEGF-A [5] = molecular target: T2, hVEGF-A; assay: cell-based or functional assay
# hVEGF-A [6] = molecular target: T2, hVEGF-A; assay: cell-based or functional assay; remark: listed apart in the source
# hVEGF-A [7] = molecular target: T2, hVEGF-A; assay: KDR-VEGF competition ELISA
Binder,ELISA (hVEGF-A (8-109) [2]),S/N vs BSA (hVEGF-A (8-109) [2]),Cellular IC50 (hVEGF-A [5]) [nM],FOLD [..] [..] TO VARIANT 9.54.90 (hVEGF-A [5]) [fold],Cellular IC50 (hVEGF-A [6]) [nM],IC50 (hVEGF-A [7]) [nM],other results
GCPTTRFKQYCKQDSDCLAGCVCGPNGFCG (designed binder) [VEGF_CKP6],3.5,51.9,–,–,–,–,IC50 (hVEGF-A [1]): 3000 nM
GCQISQPFWGCKQDSDCLAGCVCHFYNSCG (designed binder) [VEGF_CKP9.3],–,–,–,–,–,–,IC50 (hVEGF-A [3]): 1500 nM; ELISA (hVEGF-A (8-109) [4]): 1.6; S/N vs BSA (hVEGF-A (8-109) [4]): 24.5
GCDVMQPYWGCGPDIDCLSNCICHWYNSCG (designed binder) [VEGF_CKP9.63.12.12],–,–,0.56,2.41,–,–,–
"GCDVMQPYWGCGENFLCLAGCVCHWYNSCG (designed binder, also called L2.9.63.1) [VEGF_CKP9.63.1]",2,25.2,–,–,0.49,0.4,–
"GCDVMQPYWGCGESLSCLAGCVCHWYNSCG (designed binder, also called L2.9.63.69) [VEGF_CKP9.63.69]",2.9,23.7,–,–,26.4,2.1,–
GCRDLDVKWDCKQDSDCLAGCFCQYYSSCG (designed binder) [VEGF_CKP10],3.2,43.7,–,–,–,–,IC50 (hVEGF-A [1]): 1000 nM
GCNLMLPFWGCKQDSDCLAGCVCRWYHSCG (designed binder) [VEGF_CKP9.20],–,–,–,–,–,–,IC50 (hVEGF-A [3]): 1340 nM
GCKLFEPLWGCKQDSDCLAGCVCRWYESCG (designed binder) [VEGF_CKP9.96],–,–,–,–,–,–,IC50 (hVEGF-A [3]): 49000 nM; ELISA (hVEGF-A (8-109) [4]): 1.2; S/N vs BSA (hVEGF-A (8-109) [4]): 18.4
"GCDVMQPYWGCGRDMDCLAGCVCHWYNSCG (designed binder, also called L2.9.63.27) [VEGF_CKP9.63.27]",2.1,26,–,–,5.28,0.3,–
"GCDVMQPYWGCEMDFDCLAGCVCHWYNSCG (designed binder, also called L2.9.63.44) [VEGF_CKP9.63.44]",1.7,19.5,–,–,2.05,0.2,–
GCDPMQPFWGCKQDSDCLAGCVCRWYQSCG (designed binder) [VEGF_CKP9.59],–,–,–,–,–,–,IC50 (hVEGF-A [3]): 5820 nM
GCNIMLPFWGCGLDYDCLAGCVCQYYQSCG (designed binder) [VEGF_CKP9.54.2],0.1,26,–,–,4.3,0.2,–
GCNIMLPFWGCGPDLQCLAGCVCQYYQSCG (designed binder) [VEGF_CKP9.54.59],2.3,35.4,–,–,3.06,0.5,–
GCNIMLPYWGCGRDFECFYECICQYYQSCG (designed binder) [VEGF_CKP9.54.90.62.F8Y],–,–,1.14,1.18,–,–,–
GCDRMQPLWGCKQDSDCLAGCVCLWYKSCG (designed binder) [VEGF_CKP9.4],–,–,–,–,–,–,IC50 (hVEGF-A [3]): 1950 nM
GCNIMLPYWGCGRDFECMNQCICQYYQSCG (designed binder) [VEGF_CKP9.54.90.13.F8Y],–,–,2.02,0.67,–,–,–
GCNIMLPFWGCGRDFECMQTCICQYYQSCG (designed binder) [VEGF_CKP9.54.90.25],–,–,1.26,1.07,–,–,–
GCNIMLPFWGCGRDFECFINCICQYYQSCG (designed binder) [VEGF_CKP9.54.90.44],–,–,1.16,1.16,–,–,–
CNIMLPYWGCGRDFECLAGCVCQYYQSC (designed binder) [9.54.90.F7Y.A2G],–,–,3.01,0.44,–,–,–
